From article PMC9253516 (2022)

Molecular target: Survivin full length (UniProt O15392 1-142)
Assay: ITC

Chain of Survivin full length (O15392 whole entry): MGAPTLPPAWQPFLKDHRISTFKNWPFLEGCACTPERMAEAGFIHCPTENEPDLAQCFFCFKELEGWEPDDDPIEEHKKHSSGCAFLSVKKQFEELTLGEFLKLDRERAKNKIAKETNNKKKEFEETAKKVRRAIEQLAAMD

B1: Sgo1_(AKER) peptide (peptide)
peptide: AKER
Question: With B1 as the binder, how does the Kd read?
Answer: The Kd was 11.6 µM.
